Measured values reported in patent US20040059519A1.
“And” between values parts separate entries of the source, which are not always exact repeats. Identical values can stand only once.

What was measured:
[1] = molecular target: Human chorionic gonadotropin (human) (UniProt P01215); assay: sandwich, MAB602 capture beads, flow cytometry; hCG 0 ng/mL
[2] = molecular target: Human chorionic gonadotropin (human) (UniProt P01215); assay: sandwich, MAB602 capture beads, flow cytometry; hCG 20 ng/mL
[3] = molecular target: Human chorionic gonadotropin (human) (UniProt P01215); assay: sandwich, MAB602 capture beads, flow cytometry; hCG 200 ng/mL
[4] = molecular target: Human chorionic gonadotropin (human) (UniProt P01215); assay: sandwich, MAB602 capture beads, flow cytometry; hCG 2000 ng/mL
[5] = molecular target: Human chorionic gonadotropin (human) (UniProt P01215); assay: multiplex sandwich, MAB602 capture beads; hCG 8 ng/mL, no wash
[6] = molecular target: Human chorionic gonadotropin (human) (UniProt P01215); assay: multiplex sandwich, MAB602 capture beads; hCG 16 ng/mL, no wash
[7] = molecular target: Human chorionic gonadotropin (human) (UniProt P01215); assay: multiplex sandwich, MAB602 capture beads; hCG 250 ng/mL, washed
[8] = molecular target: Human chorionic gonadotropin (human) (UniProt P01215); assay: multiplex sandwich, MAB602 capture beads; hCG 31 ng/mL, no wash
[9] = molecular target: Human chorionic gonadotropin (human) (UniProt P01215); assay: multiplex sandwich, MAB602 capture beads; hCG 1000 ng/mL, washed
[10] = molecular target: Human chorionic gonadotropin (human) (UniProt P01215); assay: multiplex sandwich, MAB602 capture beads; hCG 2000 ng/mL, washed
[11] = molecular target: Human chorionic gonadotropin (human) (UniProt P01215); assay: multiplex sandwich, MAB602 capture beads; hCG 500 ng/mL, no wash
Alpha fetoprotein [12] = molecular target: Alpha fetoprotein (UniProt P02771); assay: MAB602 capture beads, flow cytometry; AFP 1.0 ng/mL, anti-hCG probe
Chain of UniProt P02771 (P02771 19-609 limits assumed): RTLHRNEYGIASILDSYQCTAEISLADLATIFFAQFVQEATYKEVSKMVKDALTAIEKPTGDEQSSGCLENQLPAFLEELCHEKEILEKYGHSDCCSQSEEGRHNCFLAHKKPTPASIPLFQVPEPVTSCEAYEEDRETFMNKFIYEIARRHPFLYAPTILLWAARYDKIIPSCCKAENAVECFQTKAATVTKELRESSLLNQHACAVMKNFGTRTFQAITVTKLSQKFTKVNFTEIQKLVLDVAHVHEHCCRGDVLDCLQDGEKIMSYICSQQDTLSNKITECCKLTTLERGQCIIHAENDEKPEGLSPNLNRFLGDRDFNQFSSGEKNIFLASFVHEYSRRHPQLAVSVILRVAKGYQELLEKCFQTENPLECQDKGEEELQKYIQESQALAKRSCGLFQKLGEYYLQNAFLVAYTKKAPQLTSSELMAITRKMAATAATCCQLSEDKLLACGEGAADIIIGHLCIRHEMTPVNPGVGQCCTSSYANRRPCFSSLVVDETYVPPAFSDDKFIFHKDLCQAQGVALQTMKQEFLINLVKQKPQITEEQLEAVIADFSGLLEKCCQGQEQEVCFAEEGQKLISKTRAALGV

[13] = molecular target: Human chorionic gonadotropin (human) (UniProt P01215); assay: MAB602 capture beads, flow cytometry; hCG 1.0 ng/mL, anti-hCG probe
[14] = molecular target: Human chorionic gonadotropin (human) (UniProt P01215); assay: bead sandwich, flow cytometry; capture A3 beads, no hCG (background)
Alpha fetoprotein [15] = molecular target: Alpha fetoprotein (UniProt P02771); assay: anti-AFP capture beads, flow cytometry; AFP 0.0 ng/mL, anti-hCG probe
[16] = molecular target: Human chorionic gonadotropin (human) (UniProt P01215); assay: multiplex no-wash sandwich, MAB602 beads; serum Level 3, hCG 436 mU/mL
[17] = molecular target: Human chorionic gonadotropin (human) (UniProt P01215); assay: multiplex no-wash sandwich, MAB602 beads; serum Level 2, hCG 26.4 mU/mL
Alpha fetoprotein [18] = molecular target: Alpha fetoprotein (UniProt P02771); assay: anti-AFP capture beads, flow cytometry; AFP 1000.0 ng/mL, anti-hCG probe
[19] = molecular target: Human chorionic gonadotropin (human) (UniProt P01215); assay: bead sandwich, flow cytometry; capture A2 (MAB 602) beads, no hCG (background)
Alpha fetoprotein [20] = molecular target: Alpha fetoprotein (UniProt P02771); assay: multiplex sandwich, S10473 capture beads; AFP 2 ng/mL, no wash
Alpha fetoprotein [21] = molecular target: Alpha fetoprotein (UniProt P02771); assay: multiplex sandwich, S10473 capture beads; AFP 62 ng/mL, washed
Alpha fetoprotein [22] = molecular target: Alpha fetoprotein (UniProt P02771); assay: multiplex sandwich, S10473 capture beads; AFP 31 ng/mL, no wash
Alpha fetoprotein [23] = molecular target: Alpha fetoprotein (UniProt P02771); assay: multiplex sandwich, S10473 capture beads; AFP 1000 ng/mL, washed
[24] = molecular target: Human chorionic gonadotropin (human) (UniProt P01215); assay: MAB602 capture beads, flow cytometry; hCG 1.0 ng/mL, anti-AFP probe
[25] = molecular target: Human chorionic gonadotropin (human) (UniProt P01215); assay: anti-AFP capture beads, flow cytometry; hCG 0.0 ng/mL, anti-AFP probe
[26] = molecular target: Human chorionic gonadotropin (human) (UniProt P01215); assay: MAB602 capture beads, flow cytometry; hCG 1000.0 ng/mL, anti-AFP probe
Alpha fetoprotein [27] = molecular target: Alpha fetoprotein (UniProt P02771); assay: anti-AFP capture beads, flow cytometry; AFP 10.0 ng/mL, anti-AFP probe
[28] = molecular target: Neutravidin (deglycosylated avidin) (UniProt P02701); assay: multiplex, Neutravidin bead 40/70 without peptide, flow cytometry
Chain of UniProt P02701 (P02701 25-152 limits assumed): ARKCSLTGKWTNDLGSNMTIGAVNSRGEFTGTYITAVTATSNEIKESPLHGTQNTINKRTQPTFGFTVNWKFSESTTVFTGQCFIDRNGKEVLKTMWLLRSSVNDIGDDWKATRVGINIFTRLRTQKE

[29] = molecular target: Neutravidin (deglycosylated avidin) (UniProt P02701); assay: multiplex, Neutravidin bead 70/60 without peptide, flow cytometry
Peptide 1 …-biotin = assay: single-analyte peptide bead, flow cytometry; MAB 384-Bodipy 15.5 ug/mL
Peptide 2 …-biotin = assay: as above
Peptide 3 …-biotin = assay: as above
Peptide 4 …-biotin = assay: as above
[30] = molecular target: Peptide 5 …-biotin (human); assay: as above
Peptide 6 …-biotin = assay: as above
Peptide 7 …-biotin = assay: as above
Peptide 8 …-biotin = assay: as above
Peptide 9 …-biotin = assay: as above
[31] = molecular target: Neutravidin (deglycosylated avidin) (UniProt P02701); assay: single-analyte, Neutravidin bead 40/40 without peptide, flow cytometry
[32] = molecular target: Neutravidin (deglycosylated avidin) (UniProt P02701); assay: single-analyte, Neutravidin bead 70/50 without peptide, flow cytometry
[33] = molecular target: Neutravidin (deglycosylated avidin) (UniProt P02701); assay: single-analyte, Neutravidin bead 70/60 without peptide, flow cytometry

Chain of UniProt P01215 (P01215 25-116, chain 1 of 2, other chains not shown): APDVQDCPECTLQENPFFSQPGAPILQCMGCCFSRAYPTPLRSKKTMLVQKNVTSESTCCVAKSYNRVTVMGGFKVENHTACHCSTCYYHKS

AB633 affinity purified polyclonal anti-hCG antibody, Bodipy FL-CASE labeled
MIF of Fm [1]: 128 and 111 | MIF of Fm [2]: 8500 and 8660 | MIF of Fm [3]: 9230 and 9400 | MIF of Fm [4]: 9290 and 9390 | MIF of Fm [5]: 1760 | MIF of Fm [6]: 2440 | MIF of Fm [7]: 2760 | MIF of Fm [8]: 2510 | MIF of Fm [9]: 3160 | MIF of Fm [10]: 3190 | MIF of Fm [11]: 1200 | MIF of Fm (Alpha fetoprotein [12]): 47 | MIF of Fm [13]: 104 | MIF of Fm [14]: 2980 | MIF of Fm (Alpha fetoprotein [15]): 61 | MIF AVG [16]: 624 | MIF of FL1 [16]: 631 and 601 and 640 | MIF AVG [17]: 31.7 | MIF of FL1 [17]: 32 and 34 and 29 | MIF of Fm (Alpha fetoprotein [18]): 57 | MIF of Fm [19]: 163

M20077 affinity purified polyclonal anti-AFP antibody, Bodipy FL-CASE labeled
MIF of Fm (Alpha fetoprotein [20]): 51 | MIF of Fm (Alpha fetoprotein [21]): 814 | MIF of Fm (Alpha fetoprotein [22]): 639 | MIF of Fm (Alpha fetoprotein [23]): 1480 | MIF of Fm [24]: 48 | MIF of Fm [25]: 45 | MIF of Fm [26]: 47 | MIF of Fm (Alpha fetoprotein [27]): 103

MAB 384, Bodipy FL-X labeled (antibody)
MIF of Fm [28]: 34 | MIF of Fm [29]: 23 | MIF of Fm (Peptide 1 …-biotin): 72 | MIF of Fm (Peptide 2 …-biotin): 57 | MIF of Fm (Peptide 3 …-biotin): 47 | MIF of Fm (Peptide 4 …-biotin): 57 | MIF of Fm [30]: 1380 | MIF of Fm (Peptide 6 …-biotin): 43 | MIF of Fm (Peptide 7 …-biotin): 42 | MIF of Fm (Peptide 8 …-biotin): 73 | MIF of Fm (Peptide 9 …-biotin): 60 | MIF of Fm [31]: 44 | MIF of Fm [32]: 66 | MIF of Fm [33]: 70
